Results reported in patent US20260219283A1.
Where “and” joins values, the source holds several entries; their conditions need not be identical. Identical values can stand only once.

Biological target: semi-synthetic pS129-α-synuclein (Proteos Inc.) (Homo sapiens (Human)) (UniProt P37840)
Test: sandwich ECLIA, freshly prepared pS129-α-syn standard at 100 ng/mL

Q: With “anti-pS129-α-syn monoclonal antibody EP1536Y” as the substance, how does the ECLIA signal at 100 ng/mL standard read?
A: The ECLIA signal at 100 ng/mL standard was 500000 and 1.1e+06.
